Measured values as given in patent US20240083984A1, “DOSING AND SCHEDULING REGIMEN FOR BROADLY NEUTRALIZING ANTIBODIES” (priority 2022, published 2024).

What was measured:
[1] = Phase 1b study GS-US-536-5816: safety (adverse events)
Source text: Participants were monitored clinically with plasma HIV-1 RNA every four weeks until the primary endpoint at Week 26. The primary endpoint was safety; secondary endpoints included virologic outcomes by FDA Snapshot analysis.

[2] = Phase 1b study GS-US-536-5816: pharmacokinetics of TAB, ZAB and LEN; conditions: single dose; through Week 26
[3] = Population PK modeling and simulation of GS-5423 and GS-2872, flat vs weight-based dosing every 6 months; set-up: species or system human
Protocol: TAB and ZAB serum concentrations were measured using validated […]-electrochemiluminescence immunoassays. A two-compartment population PK model was developed to describe the PK data of GS-5423 and GS-2872 following IV and SC administration in HIV− and HIV+ participants. See, Joel S. Owen, Jill Fiedler-Kelly, “Introduction to Population Pharmacokinetic/Pharmacodynamic Analysis with Nonlinear Mixed Effects Models”, Wiley; 1st edition, 2014 (ISBN: 9780470582299). PopPK models of TAB and ZAB were developed using nonlinear mixed-effect modeling. Covariate analyses were performed to identify significant covariates, including body weight, effects of demographics, baseline characteristics, combination regimen, and disease status, on the PK parameters of GS-5423 and GS-2872. The population PK models were simulated to predict the PK profiles of GS-5423 and GS-2872 following IV administration of 30 or 10 mg/kg body weight normalized dosing or equivalent flat doses every 6 months. Model simulations were performed to predict the concentrations of TAB and ZAB following flat vs weight-based dosing.

[4] = system: HIV; assay: PK-PD viral dynamic model and simulations of viral rebound during ATI; set-up: species or system human; conditions: in vivo, PK-PD model
Protocol: Population PK and PK-PD models were developed using a nonlinear mixed-effect modeling approach based on serum bNAb concentration and/or viral dynamic data from 6 efficacy studies in people with HIV, and 3 PK studies of 3BNC117/TAB (GS-5423) and/or 10-1074/ZAB (GS-2872) (Table 4).
bNAb concentrations were measured by ELISA assays, except for study NCT03526848 (Gaebler, et al. Nature. 2022; 606:368-374). For this study, concentrations measured by TZM-bl assay (Sarzotti-Kelsoe, et al. J Immunol Methods. 2014; 409:131-146) were transformed to ELISA data using a log-linear correlation model calibrated based on data from study NCT02825797 (Mendoza, et al. Nature. 2018; 561:479-484; Bar-On Y, et al. Nat Med. 2018; 24:1701-1707) where PK was measured using both methods. The PK data of the bNAbs were modeled by 2-compartment linear PK models. Covariates (demographics, disease status, combination treatment) were tested using stepwise forward addition (α=0.01) and backward elimination (α=0.001) methods. The PK-PD model describes viral replication using a logistic growth function and viral elimination using first-order kinetics, with a nonlinear saturable (Emax) model to describe the relationship between bNAb concentrations and viral elimination rates. […]

[5] = in vivo, cited from earlier work

CC(C)(C#Cc1ccc(-c2ccc(Cl)c3c(NS(C)(=O)=O)nn(CC(F)(F)F)c23)c([C@H](Cc2cc(F)cc(F)c2)NC(=O)Cn2nc(C(F)(F)F)c3c2C(F)(F)[C@@H]2C[C@H]32)n1)S(C)(=O)=O [lenacapavir]
injection site reactions related to subcutaneous administration ([1]; 17/20 patients, LEN 927 mg SC): 85%
participants with grade 3 AEs ([1]; injection site cellulitis and injection site erythema at site of LEN injection): Two participants
therapeutic concentrations [2]: maintained through Week 26

zinlirvimab: anti-HIV gp120 V3 glycan-binding bNAb; 10-1074 with M428L and N434S (LS) Fc substitutions; heavy and light chains SEQ ID NOs: 433 and 434
clearance in viremic PWH compared with those suppressed at baseline ([3]; PopPK covariate analysis): significant increase in the clearance
effect of increased body weight on PK parameters ([3]; PopPK covariate analysis in PWH): increased volume of distribution and clearance
estimated mean serum concentration corresponding to 50% maximum drug effect (EC50) [4]: 32.2 µg/mL
non-solicited AEs within 4 weeks of IP administration ([5]; ip): 33.7%
Grade 3 AE: decrease in hemoglobin [5]: 1%
Grade 3 AE: elevated blood pressure [5]: 4%
Grade 3 AE: increased left-sided weakness [5]: 1%
Grade 3 AE: nephrolithiasis [5]: 1%
Grade 3 AE: proteinuria [5]: 1%
most common AE: localized musculoskeletal pain [5]: 8%
most common AE: symptoms of gastroenteritis [5]: 8%
most common AE: upper respiratory infections [5]: 25%
non-solicited AEs of Grade 3 severity [5]: 9.3%
non-solicited AEs of grade 2 severity [5]: 11.6%
non-solicited AEs reported (number) [5]: 86
solicited AE: erythema/skin discoloration at the administration site [5]: 8%
solicited AE: feverishness [5]: 4%
solicited AE: headache [5]: 4%
solicited AE: induration at the administration site [5]: 2%
solicited AE: malaise/fatigue [5]: 3%
solicited AE: myalgia [5]: 1%
solicited AE: pain at the administration site [5]: 4%
solicited AEs reported (number) [5]: 20
tolerability ([1]; up to 30 mg/kg alone or in combination, GS-US-536-5816 and previous studies in HIV+ participants): well-tolerated
therapeutic concentrations [2]: maintained through Week 26
